Source: patent US20160082083A1 (NATIONAL RESEARCH COUNCIL OF CANADA, published 2016)

B1: IGFBP-2 (from R&D systems) (other)
chain: MLPRVGCPALPLPPPPLLPLLPLLLLLLGASGGGGGARAEVLFRCPPCTPERLAACGPPPVAPPAAVAAVAGGARMPCAELVREPGCGCCSVCARLEGEACGVYTPRCGQGLRCYPHPGSELPLQALVMGEGTCEKRRDAEYGASPEQVADNGDDHSEGGLVENHVDSTMNMLGGGGSAGRKPLKSGMKELAVFREKVTEQHRQMGKGGKHHLGLEEPKKLRPPPARTPCQQELDQVLERISTMRLPDERGPLEHLYSLHIPNCDKHGLYNLKQCKMSLNGQRGECWCVNPNTGKLIQGAPTIRGDPECHLFYNEQQEARGVHTQRMQ
B2: CIBP6 (aas 151-240) (other)
chain: IARNSAGVQDTEMGPCRRHLDSVLQQLQTEVYRGAQTLYVPNCDHRGFYRKRQCRSSQGQRRGPCWCVDRMGKSLPGSPDGNGSSSCPTGSSGSSTGHHHHHHHHG
B3: IGFBP-2 C-terminal fragment (aas 207-328 of SEQ ID NO: 3) (other)
chain: IASKGGKHHLGLEEPKKLRPPPARTPCQQELDQVLERISTMRLPDERGPLEHLYSLHIPNCDKHGLYNLKQCKMSLNGQRGECWCVNPNTGKLIQGAPTIRGDPECHLFYNEQQEARGVHTQRMQDPWSHPQFEKTGHHHHHHHHGGQ
B4: IGFBP-5 C-terminal fragment (aas 177-272) (other)
chain: IASIISAPEMRQESEQGPCRRHMEASLQELKASPRMVPRAVYLPNCDRKGFYKRKQCKPSRGRKRGICWCVDKYGMKLPGMEYVDGDFQCHTFDSSNVEDPWSHPQFEKTGHHHHHHHHGGQ
B5: IGFBP-6 (from R&D systems) (other)
chain: RCPGCGQGVQAGCPGGCVEEEDGGSPAEGCAEAEGCLRREGQECGVYTPNCAPGLQCHPPKDDEAPLRALLLGRGRCLPARAPAVAEENPKESKPQAGTARPQDVNRRDQQRNPGTSTTPSQPNSAGVQDTEMGPCRRHLDSVLQQLQTEVYRGAQTLYVPNCDHRGFYRKRQCRSSQGQRRGPCWCVDRMGKSLPGSPDGNGSSSCPTGSSG
B6: IGFBP-2 full-length protein (aas 1-328), produced at BRI-NRC (other)
chain: MLPRVGCPALPLPPPPLLPLLPLLLLLLGASGGGGGARAEVLFRCPPCTPERLAACGPPPVAPPAAVAAVAGGARMPCAELVREPGCGCCSVCARLEGEACGVYTPRCGQGLRCYPHPGSELPLQALVMGEGTCEKRRDAEYGASPEQVADNGDDHSEGGLVENHVDSTMNMLGGGGSAGRKPLKSGMKELAVFREKVTEQHRQMGKGGKHHLGLEEPKKLRPPPARTPCQQELDQVLERISTMRLPDERGPLEHLYSLHIPNCDKHGLYNLKQCKMSLNGQRGECWCVNPNTGKLIQGAPTIRGDPECHLFYNEQQEARGVHTQRMQGSGWSHPQFEKTGHHHHHHHHGGQ

Target: cathepsin B (human, UniProt P07858 80-333)
Test: cell-based or functional assay

Row | Binder | inhibition of intracellular cathepsin B activity (Magic Red) in U87MG cells, overnight incubation with 20 nM protein | inhibition of secreted cathepsin B activity in U87MG CM, overnight incubation with 20 nM protein
1 | B1 | ~50% | –
2 | B2 | – | ~60%
3 | B3 | ~50% | ~70%
4 | B4 | ~50% | –
5 | B5 | – | ~60%
6 | B6 | ~50% | ~60%
